Assay results published in article PMC10661072.

Assays:
[1] = molecular target: recombinant core spidroin eADF4(C16) (Araneus diadematus (engineered mimic of its fibroin 4 core domain)); experiment: turbidity at 340 nm (fibrillization kinetics), global fit with AmyloFit; 10-40 uM eADF4(C16) in 150 mM NaF, 20 C, without and with 0.5% (w/w) pre-formed seeds; secondary nucleation model, nc set to 2 and n2 to 1; monomers to fibrils
[2] = molecular target: recombinant core spidroin eADF4(C16) (Araneus diadematus (engineered mimic of its fibroin 4 core domain)); experiment: turbidity at 340 nm (fibrillization kinetics), global fit with AmyloFit; 10-40 uM eADF4(C16) in 150 mM Na2SO4, 20 C, without and with 0.5% (w/w) pre-formed seeds; secondary nucleation model, nc set to 2 and n2 to 1; monomers to fibrils

k2 (rate constant of secondary nucleation) [1]: 0.598 M⁻¹ s⁻¹
k+ (rate constant of fibril elongation) [1]: 7.26e+07 M⁻¹ s⁻¹
k+k2 (elongation x secondary nucleation, combined rate parameter) [1]: 3.34e+07 M^−2 s^−2
k+kn (elongation x primary nucleation, combined rate parameter) [1]: 420000 M^−2 s^−2
kn (rate constant of primary nucleation) [1]: 0.00585 M⁻¹ s⁻¹
k2 (rate constant of secondary nucleation) [2]: 7.08 M⁻¹ s⁻¹
k+ (rate constant of fibril elongation) [2]: 2.85e+07 M⁻¹ s⁻¹
k+k2 (elongation x secondary nucleation, combined rate parameter) [2]: 9.04e+07 M^−2 s^−2
k+kn (elongation x primary nucleation, combined rate parameter) [2]: 1.35e+06 M^−2 s^−2
kn (rate constant of primary nucleation) [2]: 1.42 M⁻¹ s⁻¹
Substance: recombinant core spidroin eADF4(C16)
